These results are taken from patent US20090004749, “METHOD AND KIT FOR DETERMINING THE AMOUNT OF DNA BINDING PROTEIN” (SYSMEX CORPORATION, published 2009).

The target of data set [1] is T1, NF-κB (recombinant, p50) (UniProt P19838 P19838:1-433). Description: competition; FCS; no competition at 50 nM; diffusion time same as without competitor. Conditions: tags: Promega; detected with anti-p50 antibody; chain copies: 2; hairpin, stem-loop with AAAA loop. Here is the method:
(§1) As a pure-line sample, 0.6 μg/μl solution of recombinant NF-κB was used. […] As the control, a pure-line sample-free sample using the fluorescent-labeled probe Pfw only as a nucleic acid probe was used. In the Reference Example, the sample to which an anti-p50 antibody had further been added was used. The reaction time was 10 minutes for each sample.

The target of data set [2] is T1, NF-κB (recombinant, p50). The data set is described as follows: fluorescence correlation spectroscopy; 1 nM probe, room temperature; 10 min. The note with it: tags: Promega; detected with anti-p50 antibody; chain copies: 2; label: 5'-TAMRA; hairpin, stem-loop with AAAA loop. Here is the method:
as §1

Data set [3] concerns the target T1, NF-κB (recombinant, p50). Description: competition; FCS; unlabeled competitor against 1 nM Pfw. Conditions: tags: Promega; detected with anti-p50 antibody; chain copies: 2; hairpin, stem-loop with AAAA loop. The protocol:
as §1

T1 sequence (P19838 1-433, one chain of several): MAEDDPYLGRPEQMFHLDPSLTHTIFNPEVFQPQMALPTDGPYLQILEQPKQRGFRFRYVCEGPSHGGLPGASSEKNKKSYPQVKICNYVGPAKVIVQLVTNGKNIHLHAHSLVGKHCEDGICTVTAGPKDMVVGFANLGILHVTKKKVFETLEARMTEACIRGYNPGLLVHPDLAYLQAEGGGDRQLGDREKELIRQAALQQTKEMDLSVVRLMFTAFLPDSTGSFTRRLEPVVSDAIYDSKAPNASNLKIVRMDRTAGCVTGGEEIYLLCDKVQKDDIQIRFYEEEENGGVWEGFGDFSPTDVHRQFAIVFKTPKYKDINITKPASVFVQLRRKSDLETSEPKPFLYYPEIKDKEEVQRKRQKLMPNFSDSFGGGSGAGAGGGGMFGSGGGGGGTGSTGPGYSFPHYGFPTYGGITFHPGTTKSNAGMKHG

With CAGGCGCGTTTTGACCATCTTAAAAAAGATGGTCAAAACGCGCCTG (structured_DNA) [Pn], in data set [1], the binding result is listed as “no binding”.

For the molecule AGTTGAGGGGACTTTCCCAGGCAAAAGCCTGGGAAAGTCCCCTCAACT (structured_DNA) [Pfw], the binding result in data set [2] is listed as “binds”.

For AGTTGAGGGGACTTTCCCAGGCAAAAGCCTGGGAAAGTCCCCTCAACT (structured_DNA) [Pw], the binding result in data set [3] is “binds”.
